Patent publication US20230265185A1 (NATIONAL RESEARCH COUNCIL OF CANADA, published 2023)

B1: hCD221ug-61 (VHH)
VHH: QVQLVESGGGLVQAGGSLRLSCAASMSSFSQYVMYWYRQAPGKQRELVATITSYSNTNYADSVKGRFTISRDNAKSIAYLQMDSLKPEDTAVYYCNAQYGSTFIRNHWDDWGQGTQVTVSS
modifications: single biotin at the VHH C-terminal (biotinylation signal sequence)
notes: llama VHH, expressed in E. coli TG1, IMAC purified, monomeric SEC fraction; also called VHH # 14; 3-hCD22 1ug-61
B2: hCD22pas-32 (VHH)
VHH: QVQLVESGGGLVQAGGSLRLSCAVSGRIFRSYVLGWFRQAPGKERELVARIGWSDTYYADSVKGRFTISRDNAKNTVDLQMNSLKPEDTAVYYCAANSPPYGPQRDEFGYWGQGTQVTVSS
modifications: single biotin at the VHH C-terminal (biotinylation signal sequence)
notes: llama VHH, expressed in E. coli TG1, IMAC purified, monomeric SEC fraction; also called VHH # 15; 6-hCD22 pas-32
B3: hCD221ug-80 (VHH)
VHH: QVQLVESGGGLVQPGGSLRLSCTFSGFTLDYYVMVWFRQAPGKEREAVSCITSDGVTYYADSVKGRFTISRDNAKNTVYLQMNRVKPEDTAVYYCAVDKPFYDGGIQYTCPVDFDSWGQGAQVTVSS
modifications: single biotin at the VHH C-terminal (biotinylation signal sequence)
notes: llama VHH, expressed in E. coli TG1, IMAC purified, monomeric SEC fraction; also called VHH # 1; 2-hCD22 1ug-80
B4: hCD22pas-64 (VHH)
VHH: QVQLVESGGGLVQAGGSLRLSCAASGSTFSLNTMAWYRQAPGNQREYVAAASSDGYTNYADSVRGRFTISRDNDKNTMYLQMNSLRPEDTAVYYCTWGTGRFADYIYWGQGTQVTVSS
modifications: single biotin at the VHH C-terminal (biotinylation signal sequence)
notes: llama VHH, expressed in E. coli TG1, IMAC purified, monomeric SEC fraction; also called VHH # 25; 7-hCD22 pas-64
B5: hCD221ug-36 (VHH)
VHH: EVQLVDSGGGLVQAGGSLRVSCEASGITFSRAAMGWYRQRPGKERERVAVVNSDSSTIYADSVKGRFTISRDNAKNTVYLQMNSLEPEDTAVYYCWSPGFGSYWGQGTQVTVSS
modifications: single biotin at the VHH C-terminal (biotinylation signal sequence)
notes: llama VHH, expressed in E. coli TG1, IMAC purified, monomeric SEC fraction; also called VHH # 22; 4-hCD22 1ug-36
B6: hCD221ug-13 (VHH)
VHH: QVQLVESGGGLVQAGDSLRLSCAGSGGSFSSVTMAWFRQAPGKDREFVAAITWSSPSTYYADSVKGRFTISRDNAKNTVYLQMNSLKPEDTAVYYCAGGRTGRGTSADTDEYNYWGQGTQVTVSS
modifications: single biotin at the VHH C-terminal (biotinylation signal sequence)
notes: llama VHH, expressed in E. coli TG1, IMAC purified, monomeric SEC fraction; also called VHH # 21; 1-hCD22 1ug-13
B7: hCD22pas-24 (VHH)
VHH: QVQLVESGGGLVQAGGSLRLSCSASGITSSINSMGWHRQAPGKQRELVASIGRGGSGSTKYADSGKGRFLISRDNNKNILFLEMNSLKPEDTADYYCLEVTTDLSSYWGRGTQVTVSS
modifications: single biotin at the VHH C-terminal (biotinylation signal sequence)
notes: llama VHH, expressed in E. coli TG1, IMAC purified, monomeric SEC fraction; also called VHH # 26; 8-hCD22 pas-24
B8: hCD221ug-10 (VHH)
VHH: QVQLVESGGGLVQAGGSLSVSCTASESTFSIMMGWFRQAPGKQREMVAVINSAGSTNYADSAEGRFTISRDLAKKTVSLQMNSLKPEDTAVYYCYVDGYFGQGTQVTVSS
modifications: single biotin at the VHH C-terminal (biotinylation signal sequence)
notes: llama VHH, expressed in E. coli TG1, IMAC purified, monomeric SEC fraction; also called VHH # 23; 5-hCD22 1ug-10

Tests used:
Assay in all cases: yeast display cell ELISA
[1] = molecular target: T1, hCD22 fragment Bin 1, IVR1 (aa1-135), displayed on yeast cells (human, UniProt P20273 20-154)
T1 construct: range 1-135; Range is counted on the mature ECD, not on the UniProt entry; on P20273 it would be 20-154 (my arithmetic); also called CD22 Sub-Domain 1; not shown: Aga2-HA display fusion partner of vector pPNL6; MYC tag
T1 sequence (looked up): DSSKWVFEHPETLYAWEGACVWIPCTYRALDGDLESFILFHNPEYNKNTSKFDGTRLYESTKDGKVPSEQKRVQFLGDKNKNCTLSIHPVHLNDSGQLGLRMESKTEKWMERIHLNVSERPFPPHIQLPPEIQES
Procedure: (§1) The YSD vector (pPNL6) was from The Pacific Northwest National Laboratory, USA. […] The HRP activity was assayed with substrate TMB (tetramethyl benzidine) according to the manufacture’s conditions and read at OD₄₅₀.
(§2) The wells that gave rise to OD₄₅₀ above 0.25 were highlighted, indicating significant antibody-antigen interactions. All the sdAbs tested except hCd22_1ug-14 were assigned to specific Bin(s).

[2] = molecular target: T2, hCD22 fragment Bin 2, IVR2 (aa111-230), displayed on yeast cells (human, UniProt P20273 130-249)
T2 construct: range 111-230; Range is counted on the mature ECD, not on the UniProt entry; on P20273 it would be 130-249 (my arithmetic); not shown: Aga2-HA display fusion partner of vector pPNL6; MYC tag
T2 sequence (looked up): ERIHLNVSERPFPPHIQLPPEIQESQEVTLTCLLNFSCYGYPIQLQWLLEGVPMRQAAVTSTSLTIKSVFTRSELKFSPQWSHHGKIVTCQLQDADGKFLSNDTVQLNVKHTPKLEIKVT
Procedure: as §1, §2

[3] = molecular target: T3, hCD22 fragment Bin 3, IVR3 (aa211-317), displayed on yeast cells (human, UniProt P20273 230-336)
T3 construct: Range is counted on the mature ECD, not on the UniProt entry; on P20273 it would be 230-336 (my arithmetic); not shown: Aga2-HA display fusion partner of vector pPNL6; MYC tag
T3 sequence (looked up): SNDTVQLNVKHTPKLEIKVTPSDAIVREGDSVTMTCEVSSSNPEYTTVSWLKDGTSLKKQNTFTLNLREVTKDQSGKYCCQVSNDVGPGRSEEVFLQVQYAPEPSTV
Procedure: as §1, §2

[4] = molecular target: T4, hCD22 fragment Bin 4, IVR4 (aa303-405), displayed on yeast cells (human, UniProt P20273 322-424)
T4 construct: Range is counted on the mature ECD, not on the UniProt entry; on P20273 it would be 322-424 (my arithmetic); also called CD22 Sub-Domain 4; not shown: Aga2-HA display fusion partner of vector pPNL6; MYC tag
T4 sequence (looked up): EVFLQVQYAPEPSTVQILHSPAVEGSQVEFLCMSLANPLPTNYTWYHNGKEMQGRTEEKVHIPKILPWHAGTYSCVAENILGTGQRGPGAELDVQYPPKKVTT
Procedure: as §1, §2

[5] = molecular target: T5, hCD22 fragment Bin 5, IVR5 (aa391-490), displayed on yeast cells (human, UniProt P20273 410-509)
T5 construct: range 391-490; Range is counted on the mature ECD, not on the UniProt entry; on P20273 it would be 410-509 (my arithmetic); not shown: Aga2-HA display fusion partner of vector pPNL6; MYC tag
T5 sequence (looked up): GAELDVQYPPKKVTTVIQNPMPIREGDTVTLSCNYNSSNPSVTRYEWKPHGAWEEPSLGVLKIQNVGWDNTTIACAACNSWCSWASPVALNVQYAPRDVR
Procedure: as §1, §2

Binder | binding result [1] | binding result [2] | binding result [3] | binding result [4] | binding result [5]
B1 | no binding (tested: OD450 not above 0.25; sdAb 250 nM) | no binding (tested: OD450 not above 0.25; sdAb 250 nM) | no binding (tested: OD450 not above 0.25; sdAb 250 nM) | no binding (tested: OD450 not above 0.25; sdAb 250 nM) | no binding (tested: OD450 not above 0.25; sdAb 250 nM)
B2 | no binding (tested: OD450 not above 0.25; sdAb 250 nM) | no binding (tested: OD450 not above 0.25; sdAb 250 nM) | no binding (tested: OD450 not above 0.25; sdAb 250 nM) | no binding (tested: OD450 not above 0.25; sdAb 250 nM) | no binding (tested: OD450 not above 0.25; sdAb 250 nM)
B3 | – | no binding (tested: OD450 not above 0.25; sdAb 250 nM) | no binding (tested: OD450 not above 0.25; sdAb 250 nM) | no binding (tested: OD450 not above 0.25; sdAb 250 nM) | no binding (tested: OD450 not above 0.25; sdAb 250 nM)
B4 | no binding (tested: OD450 not above 0.25; sdAb 250 nM) | no binding (tested: OD450 not above 0.25; sdAb 250 nM) | no binding (tested: OD450 not above 0.25; sdAb 250 nM) | no binding (tested: OD450 not above 0.25; sdAb 250 nM) | no binding (tested: OD450 not above 0.25; sdAb 250 nM)
B5 | no binding (tested: OD450 not above 0.25; sdAb 250 nM) | no binding (tested: OD450 not above 0.25; sdAb 250 nM) | no binding (tested: OD450 not above 0.25; sdAb 250 nM) | no binding (tested: OD450 not above 0.25; sdAb 250 nM) | no binding (tested: OD450 not above 0.25; sdAb 250 nM)
B6 | no binding (tested: OD450 not above 0.25; sdAb 250 nM) | no binding (tested: OD450 not above 0.25; sdAb 250 nM) | no binding (tested: OD450 not above 0.25; sdAb 250 nM) | – | no binding (tested: OD450 not above 0.25; sdAb 250 nM)
B7 | no binding (tested: OD450 not above 0.25; sdAb 250 nM) | no binding (tested: OD450 not above 0.25; sdAb 250 nM) | no binding (tested: OD450 not above 0.25; sdAb 250 nM) | no binding (tested: OD450 not above 0.25; sdAb 250 nM) | no binding (tested: OD450 not above 0.25; sdAb 250 nM)
B8 | no binding (tested: OD450 not above 0.25; sdAb 250 nM) | no binding (tested: OD450 not above 0.25; sdAb 250 nM) | no binding (tested: OD450 not above 0.25; sdAb 250 nM) | no binding (tested: OD450 not above 0.25; sdAb 250 nM) | no binding (tested: OD450 not above 0.25; sdAb 250 nM)
